Data on two substances can be found in patent US20260241018A1.

Experiment [1] deals with monkey (Macaca fascicularis) 5T4 expressed on CHO-S cells (CHO-fas5T4 cells) (monkey (Macaca fascicularis)) (UniProt Q4R8Y9). The experiment can be described thus: flow cytometry, CHO-fas5T4 cells.
Experiment [2] deals with dog 5T4 expressed on CHO-S cells (CHO-d5T4 cells) (dog). The experiment can be described thus: flow cytometry, CHO-d5T4 cells.
Experiment [3] addresses human 5T4 expressed on CHO-S cells (CHO-h5T4 cells) (human) (UniProt Q13641). Briefly: flow cytometry, CHO-h5T4 cells.
In experiment [4] the target is mouse 5T4 expressed on CHO-S cells (CHO-m5T4 cells) (mouse) (UniProt Q9Z0L0). The experiment can be described thus: flow cytometry, CHO-m5T4 cells.
mouse 5T4 expressed on CHO-S cells (CHO-m5T4 cells) (mouse), sequence (Q9Z0L0 32-361): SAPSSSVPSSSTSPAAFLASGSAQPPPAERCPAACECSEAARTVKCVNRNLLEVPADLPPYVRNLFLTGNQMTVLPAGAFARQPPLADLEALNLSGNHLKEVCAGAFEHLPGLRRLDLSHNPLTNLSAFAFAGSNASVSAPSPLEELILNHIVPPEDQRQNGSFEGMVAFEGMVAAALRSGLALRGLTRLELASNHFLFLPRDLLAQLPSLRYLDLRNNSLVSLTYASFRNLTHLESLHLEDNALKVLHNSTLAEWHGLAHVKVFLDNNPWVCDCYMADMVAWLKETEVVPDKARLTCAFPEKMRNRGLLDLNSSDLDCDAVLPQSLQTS

monkey (Macaca fascicularis) 5T4 expressed on CHO-S cells (CHO-fas5T4 cells) (monkey (Macaca fascicularis)), sequence (Q4R8Y9 35-355): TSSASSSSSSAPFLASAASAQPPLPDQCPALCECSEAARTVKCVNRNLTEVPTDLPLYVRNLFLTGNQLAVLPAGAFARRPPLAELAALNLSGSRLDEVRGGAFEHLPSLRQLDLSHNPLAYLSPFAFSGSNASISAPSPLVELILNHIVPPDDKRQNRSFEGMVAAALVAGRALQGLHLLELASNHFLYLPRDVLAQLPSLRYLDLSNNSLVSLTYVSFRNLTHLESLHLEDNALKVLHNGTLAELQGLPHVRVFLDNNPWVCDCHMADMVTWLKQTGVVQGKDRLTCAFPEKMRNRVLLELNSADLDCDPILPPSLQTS
dog 5T4 expressed on CHO-S cells (CHO-d5T4 cells) (dog), sequence (chain, as listed by the source limits assumed): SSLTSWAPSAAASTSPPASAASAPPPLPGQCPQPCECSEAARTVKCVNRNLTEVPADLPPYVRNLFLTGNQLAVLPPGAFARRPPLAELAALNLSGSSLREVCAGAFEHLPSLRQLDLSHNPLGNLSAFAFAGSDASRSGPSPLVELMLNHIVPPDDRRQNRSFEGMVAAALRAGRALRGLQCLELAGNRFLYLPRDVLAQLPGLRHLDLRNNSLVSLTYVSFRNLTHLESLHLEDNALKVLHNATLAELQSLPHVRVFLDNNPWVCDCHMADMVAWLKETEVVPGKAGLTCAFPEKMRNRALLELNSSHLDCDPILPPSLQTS
human 5T4 expressed on CHO-S cells (CHO-h5T4 cells) (human), sequence (Q13641 32-355): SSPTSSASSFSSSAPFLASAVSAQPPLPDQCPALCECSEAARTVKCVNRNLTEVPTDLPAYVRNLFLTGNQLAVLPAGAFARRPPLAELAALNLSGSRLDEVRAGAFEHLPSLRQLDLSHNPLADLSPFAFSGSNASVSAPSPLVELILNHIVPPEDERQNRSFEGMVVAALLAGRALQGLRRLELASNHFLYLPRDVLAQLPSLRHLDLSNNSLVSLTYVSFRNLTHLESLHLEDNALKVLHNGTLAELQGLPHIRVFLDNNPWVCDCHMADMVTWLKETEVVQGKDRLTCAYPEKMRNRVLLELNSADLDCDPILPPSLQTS

On to NC, for which the Percentage of Positive Cells was 1.3% in experiment [1], 1% in experiment [2], 1% in experiment [3] and 0.7% in experiment [4].

In the case of NC + secondary antibody, the Percentage of Positive Cells in experiment [1] stood at 1.6%; in experiment [2], 0.2%; in experiment [3] it was 2%; in experiment [4] it was 0.2%.
